Data from patent publication CN103588878A (JIANGSU T MAB BIOPHARMA, dated 2014).
Several values for one entry are separate records, joined by “and”; a condition that tells them apart may be missing. Identical values can stand only once.

Key:
[1] = target: T1, 生物素化重组人白细胞介素1β (rhIL-1β) (human, UniProt P01584 117-269, biotinylated (site not stated)); test: BLI (Fortebio Octet QK), summary range of the two runs
T1 construct: Antigen was biotinylated and desalted before the Fortebio Octet measurement; also called 抗原rhIL-1β

[2] = target: T1, 生物素化重组人白细胞介素1β (rhIL-1β); test: BLI (Fortebio Octet QK), biotinylated rhIL-1β, antibody 40-1.25 nM, run 1
[3] = target: T1, 生物素化重组人白细胞介素1β (rhIL-1β); test: BLI (Fortebio Octet QK), biotinylated rhIL-1β, antibody 40-1.25 nM, run 2

B1: 人源化抗人白细胞介素1β(hIL-1β)单克隆抗体 (antibody, human IgG1, kappa, V domains shown)
VH: EVQLVESGGGLVQPGGSLRLSCAVSGFSLDVYTMTWVRQAPGKGLEWIGYIWSGGSASYASWAKGRFTISKDSSKNTVYLQINSLRAEDTAVYFCARVKMISNIETFDPWGPGTLVTVSS
VL: DIQMTQSPSSVSASVGDRVTIKCQASERIYSGLAWYQQKPGKRPKLLIYRASTLASGVPSRFSGSGSGTDFTLTISSLQPEDFATYYCQQGVSSSDIDNVFGGGTKVEIKR
notes: Full light and heavy chains; Expressed in CHO DG44 cells and purified; also called 人源化抗hIL-1β单克隆抗体; humanized form of rabbit clone Q26
What does the source list for B1?
Kd [1]: 0.01 nM and 0.025 nM; Kd [2]: 0.0211 nM; koff [2]: 3.02e-06 s⁻¹; kon [2]: 143000 M⁻¹ s⁻¹; Kd [3]: 0.0128 nM; koff [3]: 2.16e-06 s⁻¹; kon [3]: 166000 M⁻¹ s⁻¹
